From PMC12167477, “Setdb1 and Atf7IP form a hetero-trimeric complex that blocks Setdb1 nuclear export” (The Journal of Biological Chemistry, 2025)

B4: biotinylated Avitag-MBP-Atf7IP(574-666) (domain or fragment, human, UniProt Q6VMQ6 574-666, looked up)
chain: EEEYEAEFQVKITAKGDINQKLQKVIQWLLEEKLCALQCAVFDKTLAELKTRVEKIECNKRHKTVLTELQAKIARLTKRFEAAKEDLKKRHEH
modifications: biotin on the AviTag (cultures supplemented with 40 uM biotin, birA co-expressed)
notes: The methods describe only the Avitag-MBP form as purified on its own; also called MBP-Atf71P; source: E. coli, co-expressed with birA and biotin, purified (MBPTrap, Superdex 200); not shown: AviTag, N-terminal, kept; MBP, N-terminal, kept

Experiments:
[1] = biological target: B4; test: AlphaScreen or HTRF; AlphaScreen His-Detection kit: nickel chelate acceptor beads and streptavidin donor beads; both proteins at 20 nM, or one at 20 nM and the other 0 to 20 nM; 50 mM MOPS, 50 mM CHAPS, 50 mM NaF, 100 ug/ml BSA, pH 7; room temperature; triplicates; details: both partners purified
MBP-Setdb1(2-115) [2] = biological target: T1, MBP-Setdb1(2-115) (human, UniProt Q15047 2-115); test: pull-down; three tagged proteins co-expressed in E. coli, complex purified sequentially by the his tag and then the strep tag; SDS-PAGE; details: partners not purified
T1 construct: The methods list the MBP tag of the vectors as AviTag-Mbp; also called MBP-Setdb1(2-114); not shown: MBP, N-terminal, kept

[3] = biological target: the molecule itself; test: SEC; gel filtration of isolated MBP-Atf7IP(574-666) with and without Tween 20 in the buffer
his-sumo-Setdb1(2-115) = biological target: T2, his-sumo-Setdb1(2-115) (human, UniProt Q15047 2-115); test: AlphaScreen or HTRF; AlphaScreen His-Detection kit: nickel chelate acceptor beads and streptavidin donor beads; both proteins at 20 nM, or one at 20 nM and the other 0 to 20 nM; 50 mM MOPS, 50 mM CHAPS, 50 mM NaF, 100 ug/ml BSA, pH 7; room temperature; triplicates; details: both partners purified
T2 construct: also called his-sumo-Setdb1(2-114); source: E. coli (BL21DE3 or Rosetta2), purified (HisTrap, dialysis); not shown: His6, N-terminal, kept; SUMO, N-terminal, kept

GST-Setdb1(2-115) = biological target: T3, GST-Setdb1(2-115) (human, UniProt Q15047 2-115); test: pull-down; 0.5 uM GST-fusion immobilised on glutathione Sepharose beads; 1.5 uM hCrm1 with or without 4.5 uM RanGTP; with or without pre-incubation with MBP-Atf7IP(574-666) (3-fold or 15-fold excess); 20 mM HEPES 7.4, 110 mM potassium acetate, 2 mM magnesium acetate, 10% glycerol, 2 mM DTT, 0.005% Tween20; Coomassie SDS-PAGE; details: both partners purified
T3 construct: source: E. coli, purified (GSTTrap, Superdex 200); not shown: GST, N-terminal, kept

[4] = biological target: the molecule itself; test: native MS; co-expressed and purified MBP-Setdb1(2-115)/his-sumo-Atf7IP(574-666) complex, 500 nM, 400 mM ammonium acetate pH 7.9, 1 mM DTT; Q Exactive UHMR; HCD fragmentation
MBP-Setdb1(2-115) [5] = biological target: T1, MBP-Setdb1(2-115); test: SEC-MALS; co-expressed and purified complex, about 400 ul at about 1 mg/ml, Superdex 200 Increase 10/300; details: both partners purified
[6] = biological target: the molecule itself; test: cross-linking; disulfide cross-linking of MBP-Atf7IP(574-666) with only C631, in isolation; SDS-PAGE with and without BME

B1: his-sumo-Setdb1(Δα1-α2; residues 50-115) (domain or fragment, human, UniProt Q15047 50-115, looked up)
chain: KMDCVQQRKKQLAELETWVIQKESEVAHVDQLFDDASRAVTNCESLVKDFYSKLGLQYRDSSSEDE
notes: source: E. coli, purified (HisTrap, dialysis); not shown: His6, N-terminal, kept; SUMO, N-terminal, kept
In the case of B1, the “binding, percent of WT” value [1] is reported as ~30 % of WT.

B2: Atf7IP2(297-388), his-sumo- or Strep-tagged (domain or fragment, UniProt Q5U623 297-388, looked up)
chain: MKTSEQINENICVSLERQTAFLEQVRHLIQQEIYSINYELFDKKLKELNQRIGKTECRNKHEGIADKLLAKIAKLQRRIKTVLLFQRNCLKP
notes: Atf7IP2, coiled coil region, residues 297-388; Two differently tagged copies of one fragment, written as one molecule; in the mixed trimer with Atf7IP only the Strep-tagged copy was there; also called his-sumo-Atf7IP2(297-388); Strep-Atf7IP2(297-388); not shown: His6-SUMO (one copy) or Strep (the other copy), N-terminal, kept
For B2, the “stoichiometry N” value (MBP-Setdb1(2-115) [2]) was 2 Atf7IP2 per Setdb1.

B3: his-sumo-Setdb1(Δα1; residues 35-115) (domain or fragment, human, UniProt Q15047 35-115, looked up)
chain: ISMEELRHFIDEELEKMDCVQQRKKQLAELETWVIQKESEVAHVDQLFDDASRAVTNCESLVKDFYSKLGLQYRDSSSEDE
notes: as for B1
For B3, the “binding, percent of WT” value [1] was ~80 % of WT.

B4: binds [3]; binds (his-sumo-Setdb1(2-115)); binds (GST-Setdb1(2-115)).

B5: his-sumo-Atf7IP(574-666) (domain or fragment, human, UniProt Q6VMQ6 574-666, looked up)
chain: EEEYEAEFQVKITAKGDINQKLQKVIQWLLEEKLCALQCAVFDKTLAELKTRVEKIECNKRHKTVLTELQAKIARLTKRFEAAKEDLKKRHEH
notes: not shown: His6, N-terminal, kept; SUMO, N-terminal, kept
With B5 the binding result [4] was “binds” and the “stoichiometry N” value (MBP-Setdb1(2-115) [5]) was 2 Atf7IP per Setdb1.

B6: MBP-Atf7IP(574-666) C608S C612S (domain or fragment, human, UniProt Q6VMQ6 574-666, looked up)
chain: EEEYEAEFQVKITAKGDINQKLQKVIQWLLEEKLSALQSAVFDKTLAELKTRVEKIECNKRHKTVLTELQAKIARLTKRFEAAKEDLKKRHEH
notes: The methods name the synthesised vector without the MBP tag on Atf7IP; the results call the protein MBP-Atf7IP; also called Atf7IP(C631); source: also used in isolation; not shown: MBP, N-terminal, kept
B6: binds [6].
